Values belong to the binder of their own block, whether it stands above or below them.
How the values were obtained:
myc-KIF1C-350 = molecular target: T1, myc-KIF1C-350 (human, UniProt O43896 1-350); assay: pull-down; concentration dependence: in vitro translated myc-KIF1C-350 with GTPγS-loaded GST-Rab6A Q72L; apparent KD; fit with KaleidaGraph; conditions: one partner purified
T1 construct: KIF1C, human, N-terminal motor domain, residues 1-350; also called myc-KIF1C motor domain; in vitro translated KIF1C motor domain; source: in vitro translated
T1 sequence (looked up): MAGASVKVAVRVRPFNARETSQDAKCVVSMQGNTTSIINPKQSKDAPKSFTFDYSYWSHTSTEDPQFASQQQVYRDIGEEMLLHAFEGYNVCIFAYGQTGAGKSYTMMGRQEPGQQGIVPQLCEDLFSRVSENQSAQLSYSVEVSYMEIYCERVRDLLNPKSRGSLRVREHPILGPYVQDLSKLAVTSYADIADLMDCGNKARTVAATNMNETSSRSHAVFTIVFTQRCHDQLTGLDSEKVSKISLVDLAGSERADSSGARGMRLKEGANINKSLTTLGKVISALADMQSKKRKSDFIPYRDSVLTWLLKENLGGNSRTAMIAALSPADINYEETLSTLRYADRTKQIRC

[1] = molecular target: T2, Paclitaxel stabilized pre-polymerized microtubules (UniProt Q71U36 1-451; P07437 1-444, Paclitaxel-stabilized polymer, polymerized with GTP. One alpha/beta heterodimer represents the repeating unit. Source and isotypes are not given; mammalian (likely porcine) brain tubulin, a natural); assay: co-sedimentation; KIF1C-355-His (160 nM) with His-Rab6A Q72L, His-Rab33 or BSA (3.42 µM), then increasing microtubules, 2.6 mM ADP, 0.35 mM GTPγS; BRB80; conditions: both partners purified
[2] = molecular target: T2, Paclitaxel stabilized pre-polymerized …; assay: co-sedimentation; KIF1C-355-His (80 nM) with His-Rab6A Q72L (4.86 µM) or BSA (7.6 µM), then increasing microtubules, 2.6 mM AMP-PNP, 0.35 mM GTPγS; BRB80; conditions: both partners purified
His-Rab6A Q72L = molecular target: T3, His-Rab6A Q72L (UniProt P20340 1-208, Q72L); assay: pull-down; concentration dependence: GTPγS-loaded His-Rab6A Q72L (0.58 μM) with GST-KIF1C CBD immobilized on glutathione Sepharose; quantitative fluorescent antibody immunoblot; fit with GraphPad Prism; conditions: both partners purified
T3 construct: Rab6A GTPase, GTP-hydrolysis deficient mutant; also called active His-Rab6A; source: purified as described (Aivazian et al., 2006)

- Kd (myc-KIF1C-350): 230 nM
B1: GST-Rab6A Q72L (natural protein, UniProt P20340 1-208, looked up)
chain: MSTGGDFGNPLRKFKLVFLGEQSVGKTSLITRFMYDSFDNTYQATIGIDFLSKTMYLEDRTVRLQLWDTAGLERFRSLIPSYIRDSTVAVVVYDITNVNSFQQTTKWIDDVRTERGSDVIIMLVGNKTDLADKRQVSIEEGERKAKELNVMFIETSAKAGYNVKQLFRRVAAALPGMESTQDRSREDMIDIKLEKPQEQPVSEGGCSC
notes: Rab6A GTPase, GTP-hydrolysis deficient mutant; GTPγS-loaded; also called active Rab6A hydrolysis-deficient mutant; source: purified as described (Aivazian et al., 2006)

- Kd [1]: 2100 nM
- fold increase of KD with His-Rab6A (ADP state) [1]: > 10 fold
- Kd [2]: 460 nM
- fold increase of KD with His-Rab6A (AMP-PNP state) [2]: > 10 fold
B2: KIF1C-355-His (domain or fragment)
chain: MAGASVKVAVRVRPFNARETSQDAKCVVSMQGNTTSIINPKQSKDAPKSFTFDYSYWSHTSTEDPQFASQQQVYRDIGEEMLLHAFEGYNVCIFAYGQTGAGKSYTMMGRQEPGQQGIVPQLCEDLFSRVSENQSAQLSYSVEVSYMEIYCERVRDLLNPKSRGSLRVREHPILGPYVQDLSKLAVTSYADIADLMDCGNKARTVAATNMNETSSRSHAVFTIVFTQRCHDQLTGLDSEKVSKISLVDLAGSERADSSGARGMRLKEGANINKSLTTLGKVISALADMQSKKRKSDFIPYRDSVLTWLLKENLGGNSRTAMIAALSPADINYEETLSTLRYADRTKQIRNTVSVN
notes: KIF1C, human, motor domain residues 1-349; KIF5C heavy chain, murine, residues 329-334; Design follows Nitta et al., 2004 for KIF1A; also called recombinant KIF1C motor domain; purified KIF1C motor domain; source: E. coli Rosetta 2, purified (Ni-NTA, HiTrap Q FF); not shown: His6, C-terminal, kept

- Kd (His-Rab6A Q72L): 900 nM
B3: GST-KIF1C CBD (domain or fragment, human, UniProt O43896 1060-1103, looked up)
chain: SYPQPPQPYPAQRPPGPRYPPYTTPPRMRRQRSAPDLKESGAAV
notes: the text calls it the C-terminal 40 amino acids; Text says 40 C-terminal residues, the legend AA 1060-1103 (44 residues); source: bacteria, purified (glutathione-Sepharose)
